In general, stoichiometry N refers to a count of units in the complex or per binding partner.

This data set deals with the molecule itself. The data set can be described thus: SEC-MALS; as-purified MTHFR; HPLC on TSK-gel G3000SWxl with multi-angle light scattering and refractive index detectors; 50 mM Tris-HCl pH 6.8, 0.2 M NaCl; 0.5 ml/min; 0.1 mg protein/run. (Size exclusion chromatography separates by hydrodynamic size, large species first.)

B1: Methylenetetrahydrofolate reductase (MTHFR) from Thermus thermophilus HB8, C-terminally hexa-His-tagged wildtype (enzyme, UniProt Q5SLG6 1-296, looked up)
chain: MKIRDLLKARRGPLFSFEFFPPKDPEGEEALFRTLEELKAFRPAFVSITYGAMGSTRERSVAWAQRIQSLGLNPLAHLTVAGQSRKEVAEVLHRFVESGVENLLALRGDPPRGERVFRPHPEGFRYAAELVALIRERYGDRVSVGGAAYPEGHPESESLEADLRHFKAKVEAGLDFAITQLFFNNAHYFGFLERARRAGIGIPILPGIMPVTSYRQLRRFTEVCGASIPGPLLAKLERHQDDPKAVLEIGVEHAVRQVAELLEAGVEGVHFYTLNKSPATRMVLERLGLRPASGQP
notes: Methylenetetrahydrofolate reductase (MetF homologue) of Thermus thermophilus HB8, clone TTHA0327, wildtype gene amplified by PCR into pET23; the original stop codon was mutated to Ala before the C-terminal hexa-His tag; One polypeptide in two cofactor states: as purified about one FAD per dimer (apo- plus holo-subunit), after FAD treatment one FAD per subunit; The stop codon is replaced by Ala, …
Regarding B1, the “stoichiometry N” value is 2.

The values above are taken from PMC3156243, “Properties and Crystal Structure of Methylenetetrahydrofolate Reductase from Thermus thermophilus HB8” (PLoS ONE, 2011).
